Reference: article PMC7720844
Each block holds one substance with its values, some of them ahead of it.

Columns and labels:
WTAP = WTAP (UniProt Q15007); test: co-IP, immunoblot; conditions: reference: wild type; sites S43,S50,S525
USP5 = USP5 (UniProt P45974); test: anti-myc co-IP, immunoblot; conditions: reference: wild type

binding against the reference (WTAP): weaker
Substance: METTL3 (from UniProt Q86U44) 3A (S43A/S50A/S525A)

binding against the reference (USP5; sites S43): weaker
Substance: METTL3 (from UniProt Q86U44) S43A

binding against the reference (USP5; sites S50): weaker
Substance: METTL3 (from UniProt Q86U44) S50A

binding against the reference (USP5; sites S525): weaker
Substance: METTL3 (from UniProt Q86U44) S525A
